Assays:
[1] = molecular target: H2B S112C-MB nucleosome (MB-modified H2B S112C) (Xenopus)
[2] = molecular target: asymmetric nucleosome MB/WT (MB-modified H2A/H2B S112C dimer in the upstream position, WT dimer downstream) (Xenopus) (UniProt P06897)
[3] = molecular target: asymmetric nucleosome WT/MB (WT dimer in the upstream position, MB-modified H2A/H2B S112C dimer downstream) (Xenopus) (UniProt P06897)
[4] = molecular target: H2A G2C-MB nucleosome (100% MB-modified H2A G2C, both H2A N-tails biotinylated) (Xenopus); test: native gel or EMSA; biotin-modified or unmodified nucleosomes (radiolabelled 601 DNA) incubated with streptavidin in TE buffer for 10 min at room temperature, run on 6% native PAGE (legend of Figure 2B: 5%); mobility shift
[5] = molecular target: asymmetric nucleosome MB/WT (MB-modified H2A/H2B S112C dimer in the upstream position, WT dimer downstream) (Xenopus) (UniProt P06897); test: native gel or EMSA; asymmetrically modified nucleosomes on Cy5-labelled DNA incubated with or without streptavidin, 5% acrylamide nucleoprotein gels, imaged by fluorography
[6] = molecular target: asymmetric nucleosome WT/MB (WT dimer in the upstream position, MB-modified H2A/H2B S112C dimer downstream) (Xenopus) (UniProt P06897); test: as above

Row | rate of HhaI digestion during RSC remodeling, nucleosomes with one streptavidin bound (1SA) against unbound nucleosomes [1] [fold slower] | rate of HhaI digestion during RSC remodeling, nucleosomes with two streptavidins bound (2SA) against the unbound control [1] [fold slower] | fraction of RSC-mobilized, streptavidin-bound nucleosomes protected from Hind III digestion at the downstream end (about 40% without streptavidin) [2] [%] | fraction of RSC-mobilized, streptavidin-bound nucleosomes protected from Hind III digestion at the downstream end (about 40% without streptavidin) [3] [%] | stoichiometry N (streptavidin per nucleosome) [4] | stoichiometry N (streptavidin per nucleosome) [5] | stoichiometry N (streptavidin per nucleosome) [6] | Substance
1 | 2 | 20 | 80 | 20 | – | – | – | RSC (Remodels the Structure of Chromatin) complex, yeast (from UniProt P32597 1-1359; Q06168 1-426; Q06488 1-889; Q02206 1-625; Q07979 1-502; Q12406 1-477; Q05123 1-467)
2 | – | – | – | – | 1 | 1 | 1 | streptavidin (from UniProt P22629 25-183) (natural protein)
